According to patent US20220411487A1 (Regeneron, published 2022):
Changes are numbered by the printed parent chain. In names and notes the source's numbering stands.

B1: REGN7999 (antibody, human IgG4 S228P, kappa, V domains shown)
VH: EVQLVESGGGLVQPGGSLRLSCAASGFTFSSYAMTWVRQAPGKGLEWVSAISGSDTSTYYADSVKGRFTISRDNSKNTLFLQMNSLRAEDTAVYYCAKHQDYDFSYYYSAMDVWGQGTTVTVSS
VL: DIQMTQSPSSLSASVGDRVIITCRASQDFNSWLAWYQQKPGKAPKLLIYAASSLQSGVPSRFSGSGSGTDFTLTISSLQPEDFATYYCQQTDSFPFTFGPGTKVDIKR
notes: fully human; human IgG4 Fc with hinge S108P; also called mAb41450
B2: REGN7969 (antibody, human IgG4 S228P, kappa, V domains shown)
VH: QVQLVESGGGVVQPGRSLRLSCAASGFTFNNYGMHWVRQAPGKGLEWVAIISYDGSNEYYSDSVKGRFTISRDNSKNTLYLQMNSLRAEDTAVYYCARDQDYGGNLFHYWGQGTLVTVSS
VL: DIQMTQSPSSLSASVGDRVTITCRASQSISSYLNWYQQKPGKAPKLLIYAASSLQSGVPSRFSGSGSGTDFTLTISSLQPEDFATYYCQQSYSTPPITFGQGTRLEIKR
notes: fully human; human IgG4 Fc with hinge S108P; also called mAb37746
B3: REGN7971 (antibody, human IgG4 S228P, kappa, V domains shown)
VH: B2 VH with N30S, N31T, E58D, S61L, S85N, R98K, D101G, H108A, Y109S
VL: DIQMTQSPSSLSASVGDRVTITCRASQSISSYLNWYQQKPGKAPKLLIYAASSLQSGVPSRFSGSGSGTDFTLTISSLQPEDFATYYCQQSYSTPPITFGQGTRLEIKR
notes: fully human; human IgG4 Fc with hinge S108P; also called mAb37763
B4: REGN8023 (antibody, human IgG4 S228P, kappa, V domains shown)
VH: EVQLVESGGGLVKPGGSLRISCAASGFIFVDYAMHWVRQAPGKGLEWVSGISWNSGSIGYADSVKGRFTISRDNAKKSLYLQMSGLRPEDTALYYCVKSGFYYVRSYFDNWGQGTLVTVSS
VL: DIVMTQSPLSLPVTPGEPASISCRSSQSLLDSDDGNTYLDWYLRKPGQSPQLLIYTLSYRASGVPDRFSGSGSGTDFTLKISRVEADDVGVYYCMQRIEFPLTFGGGTKVEIKR
notes: fully human; human IgG4 Fc with hinge S108P; also called mAb37699
B5: REGN7974 (antibody, human IgG4 S228P, kappa, V domains shown)
VH: EVQLVESGGGLVQPGRSLRLSCIASGFNFGDYGMSWVRQAPGKGLEWVGFIRSKAYGGTTEYAASVKGRFTISRDDSKSIAYLQMNSLKTEDAAMYYCSRDYYDILTGYYGDYWGQGTLVTVSS
VL: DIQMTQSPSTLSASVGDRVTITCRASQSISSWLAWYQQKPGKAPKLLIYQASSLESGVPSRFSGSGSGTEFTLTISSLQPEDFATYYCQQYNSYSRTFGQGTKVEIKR
notes: fully human; human IgG4 Fc with hinge S108P; also called mAb41422
B6: REGN7977 (antibody, V domains shown)
VH: EVQLVESGGGLVKPGGSLRVSCAASGVTFSNVWMSWVRQVPGKGLEWVGRIKSKTDGGTTDYAAPVKGRFTISKDDSKNTLFLQMNSLKTEDTAVYYCTTETGDFWSGYYPRFQHWGQGTLVTVSS
VL: DIQMTQSPSSLSASVGDRVTITCRASQYISTYLNWYQQKPGKAPSLLIYAASSLQSGVPSRFSGSGSGTDFTLTISSLQPEDFASYSCQQSYSTPPYTFGQGTKLEIKR
notes: fully human; human IgG4 Fc with hinge S108P; also called mAb41465

Molecular target: T1, full length human TMPRSS6 on HEK293 cells (HEK293/hTMPRSS6) (human, UniProt Q8IU80 10-811)
T1 construct: whole, on cells
T1 sequence (looked up): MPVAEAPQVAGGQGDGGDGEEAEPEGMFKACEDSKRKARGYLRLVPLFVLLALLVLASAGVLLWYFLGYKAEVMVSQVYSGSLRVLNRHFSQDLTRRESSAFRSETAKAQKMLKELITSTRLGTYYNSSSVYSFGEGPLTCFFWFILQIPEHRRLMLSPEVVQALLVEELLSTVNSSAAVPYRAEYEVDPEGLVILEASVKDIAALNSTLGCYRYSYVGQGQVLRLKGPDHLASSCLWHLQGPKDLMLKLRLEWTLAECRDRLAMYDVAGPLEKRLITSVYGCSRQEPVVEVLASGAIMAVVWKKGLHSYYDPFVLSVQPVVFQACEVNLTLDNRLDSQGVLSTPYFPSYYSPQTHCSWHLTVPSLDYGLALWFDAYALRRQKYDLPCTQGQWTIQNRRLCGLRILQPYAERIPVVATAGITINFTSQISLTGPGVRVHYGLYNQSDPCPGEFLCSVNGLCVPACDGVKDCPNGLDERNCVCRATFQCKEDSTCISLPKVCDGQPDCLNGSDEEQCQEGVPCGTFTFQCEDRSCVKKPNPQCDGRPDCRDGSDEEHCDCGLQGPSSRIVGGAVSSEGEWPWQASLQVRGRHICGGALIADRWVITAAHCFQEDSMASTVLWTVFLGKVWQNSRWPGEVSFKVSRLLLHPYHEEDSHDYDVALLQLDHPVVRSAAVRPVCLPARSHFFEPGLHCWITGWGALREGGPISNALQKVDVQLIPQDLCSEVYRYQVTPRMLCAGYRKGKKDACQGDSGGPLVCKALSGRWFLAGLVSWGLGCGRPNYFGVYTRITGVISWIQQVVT
Test: flow cytometry, HEK293 cells expressing target
Procedure: (§1) To assess the binding of anti-TMPRSS6 antibodies of the present disclosure to the receptor expressed on the cell surface, antibodies (including an IgG subclass control) were serially diluted in assay buffer (PBS without Ca⁺⁺ and Mg⁺⁺ containing 2% FBS) from 375 nM to 22.9 pM (plus a sample containing assay buffer alone without test molecule) and incubated with 0.5×10⁶ cells/well at 4° C. for 30 minutes in assay buffer. […] Cells were fixed using BD CytoFix™ (Becton Dickinson, #554655) and analyzed on either the IQue® or IQue®Plus Flow Cytometers (Intellicyt®). Unstained and secondary antibody alone controls were also tested for all cell lines. The results were analyzed using ForeCyt® (IntelliCyt®) software to determine the geometric means of fluorescence for viable cells and binding ratio was calculated by normalizing the geometric mean value of the test condition by the geometric mean value of the corresponding unstained cells.

Compared with B1, B2 is 3.3-fold lower in EC50: 2.2 nM for the first, 0.67 nM for the second. The second is the more potent here.

B3 and B4 are within 1.5-fold of each other in EC50: 0.97 nM for the first, 0.7 nM for the second.

B5 and B6 are within 1.5-fold of each other in EC50: 2.4 nM for the first, 1.9 nM for the second.

Compared with B1, B2 is higher in “Max. Fold Binding” value: 50 fold over unstained control for the first, 52 fold over unstained control for the second.

Going from B3 to B4, the “Max. Fold Binding” value falls from 66 fold over unstained control to 47 fold over unstained control.

First: B5
Second: B6
The “Max. Fold Binding” value of the first is lower: 54 fold over unstained control for the first, 69 fold over unstained control for the second.

Molecular target: T2, full length cynomolgous monkey TMPRSS6 on HEK293 cells (HEK293/mfTMPRSS6) (cynomolgous monkey/Macaca fascicularis, UniProt Q8IU80 10-811 (human entry))
T2 chain: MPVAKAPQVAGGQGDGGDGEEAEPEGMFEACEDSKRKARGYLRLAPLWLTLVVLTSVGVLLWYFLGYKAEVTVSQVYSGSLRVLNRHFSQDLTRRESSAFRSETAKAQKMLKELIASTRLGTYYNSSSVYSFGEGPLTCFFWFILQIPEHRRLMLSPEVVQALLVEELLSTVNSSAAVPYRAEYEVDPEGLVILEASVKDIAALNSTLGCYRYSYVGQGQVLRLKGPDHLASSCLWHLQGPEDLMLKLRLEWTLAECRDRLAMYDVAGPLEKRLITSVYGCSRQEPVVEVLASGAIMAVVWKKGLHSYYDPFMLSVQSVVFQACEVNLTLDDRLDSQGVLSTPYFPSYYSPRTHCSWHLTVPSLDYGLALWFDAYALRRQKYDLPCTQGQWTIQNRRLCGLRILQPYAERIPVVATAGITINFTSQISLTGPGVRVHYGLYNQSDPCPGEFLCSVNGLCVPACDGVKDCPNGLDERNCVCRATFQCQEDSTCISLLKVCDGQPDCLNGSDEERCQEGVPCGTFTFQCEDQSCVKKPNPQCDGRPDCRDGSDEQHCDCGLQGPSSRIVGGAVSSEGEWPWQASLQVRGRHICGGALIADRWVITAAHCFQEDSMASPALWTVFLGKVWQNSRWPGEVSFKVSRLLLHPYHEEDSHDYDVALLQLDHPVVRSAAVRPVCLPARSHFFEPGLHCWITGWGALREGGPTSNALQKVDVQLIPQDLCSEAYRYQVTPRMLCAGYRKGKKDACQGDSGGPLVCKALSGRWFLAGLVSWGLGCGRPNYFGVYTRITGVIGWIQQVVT
Test: flow cytometry, HEK293 cells expressing target
Procedure: as §1

Compared with B1, B2 is 1.7-fold lower in EC50: 2 nM for the first, 1.2 nM for the second.

Going from B3 to B4, the EC50 falls from 1.5 nM to 0.94 nM (1.6-fold).

Compared with B5, B6 is 1.5-fold lower in EC50: 3.6 nM for the first, 2.4 nM for the second. The second is the more potent here.

Compared with B1, B2 is lower in “Max. Fold Binding” value: 79 fold over unstained control for the first, 50 fold over unstained control for the second.

Going from B3 to B4, the “Max. Fold Binding” value falls from 75 fold over unstained control to 52 fold over unstained control.

First: B5
Second: B6
The “Max. Fold Binding” value of the first is lower: 50 fold over unstained control for the first, 78 fold over unstained control for the second.

Molecular target: T3, full length mouse TMPRSS6 on HEK293 cells (HEK293/mTMPRSS6) (mouse, UniProt Q9DBI0 1-811)
T3 construct: line sorted for high expression
T3 sequence: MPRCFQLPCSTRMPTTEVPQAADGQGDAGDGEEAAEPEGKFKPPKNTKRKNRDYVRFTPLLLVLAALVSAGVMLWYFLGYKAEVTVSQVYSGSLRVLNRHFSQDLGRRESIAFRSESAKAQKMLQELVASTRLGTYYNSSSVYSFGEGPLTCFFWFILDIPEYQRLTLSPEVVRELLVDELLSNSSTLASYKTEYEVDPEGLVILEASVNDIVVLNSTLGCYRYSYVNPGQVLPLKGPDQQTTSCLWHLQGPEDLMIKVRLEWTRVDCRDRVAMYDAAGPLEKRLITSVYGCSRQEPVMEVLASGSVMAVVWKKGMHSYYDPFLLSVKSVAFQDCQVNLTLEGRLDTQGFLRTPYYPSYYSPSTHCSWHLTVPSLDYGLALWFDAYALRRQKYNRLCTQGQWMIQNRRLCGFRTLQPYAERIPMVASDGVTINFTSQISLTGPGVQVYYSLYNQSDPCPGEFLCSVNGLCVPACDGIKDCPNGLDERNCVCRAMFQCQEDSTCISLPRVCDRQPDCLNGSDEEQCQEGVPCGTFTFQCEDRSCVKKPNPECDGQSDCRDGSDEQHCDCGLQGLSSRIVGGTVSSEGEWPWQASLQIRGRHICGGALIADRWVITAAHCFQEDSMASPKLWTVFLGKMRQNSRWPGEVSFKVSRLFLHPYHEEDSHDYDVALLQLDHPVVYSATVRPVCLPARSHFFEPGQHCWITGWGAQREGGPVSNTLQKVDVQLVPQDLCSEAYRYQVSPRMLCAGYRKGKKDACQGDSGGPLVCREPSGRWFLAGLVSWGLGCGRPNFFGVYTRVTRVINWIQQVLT
Test: flow cytometry, HEK293 cells expressing target
Procedure: as §1

Going from B1 to B4, the EC50 falls from 4.5 nM to 0.84 nM (5.4-fold).

In the case of B6, the EC50 is reported as 9.1 nM.

Compared with B1, B2 is lower in “Max. Fold Binding” value: 421 fold over unstained control for the first, 1 fold over unstained control for the second.

First: B3
Second: B4
The “Max. Fold Binding” value of the first is lower: 1 fold over unstained control for the first, 296 fold over unstained control for the second.

Going from B5 to B6, the “Max. Fold Binding” value rises from 1 fold over unstained control to 125 fold over unstained control.
